Legend:
[1] = target: T1, Human LOX-1 full-length protein (human, UniProt P78380 1-273); experiment: cell-based or functional assay
[2] = target: T2, APP-Avi-soluble cynomolgus monkey LOX-1 (61-273) (cynomolgus monkey, biotinylated at the Avi tag when immobilised in the SET assay); experiment: SPR Biacore T200, antibody captured by anti-mouse IgG, cynomolgus soluble LOX-1 as analyte, 1:1 model
T2 construct: Expressed and purified in the same way as the human protein; also called cynomolgus monkey soluble LOX-1; Cynomolgus Monkey Soluble APP-Avi-LOX-1
Description: For murine LOX-1 antibody E2E10 binding to human and cynomolgus monkey LOX-1, a Biacore T200 was primed with fresh, filtered running buffer (1×HBS-EP+(GE catalog number BR-1006-60)). A CM5 chip (GE catalog number BR-1005-30) was prepared using a mouse antibody capture kit (GE catalog number BR-1008-38) and an amine coupling kit (GE catalog number BR-1000-50). Briefly, a new chip was activated with EDC/NHS at 10 ul/min for 420 sec. Anti-mouse IgG antibody was immobilized at […] 10 mM acetate pH 5.0 at 10 ul/min for 420 sec. The chip surface was deactivated with 1M ethanolamine solution (10 ul/min for 420 sec) and then conditioned three times with 10 mM Glycine-HCl, pH 1.5 (GE catalog number BR-1003-54) at 60 ul/min for 30 sec.
For sample cycles, 1) Ms-anti-Hu LOX-1 mAb was captured on flow cell 2, 3, or 4 for a pre-determined amount of time that allowed for capture of approximately 20RUs at 10 ul/min. Flow cell 1 was used as a reference, 2) running buffer for 30s at 60 ul/min, 3) human soluble LOX-1 or cynomolgus monkey soluble LOX-1 diluted in running buffer at various concentrations (with at least two duplicate samples and multiple buffer blanks for 350 sec at 60 ul/min, with either 750 sec or 3000 sec dissociation time), 4) regeneration buffer for 60 sec at 60 ul/min, 5) running buffer for 35s at 60 ul/min, extra wash with running buffer and including a carry-over control. Data were analyzed using buffer blanks, reference blank, and a 1:1 binding model for curve fitting in order to determine association and dissociation rate constants (ka and kd) and equilibrium binding constants (KD) (see results for E2E10 in Tables 7-8).

[3] = target: T1, Human LOX-1 full-length protein; experiment: flow cytometry, inhibition of dil-OxLDL binding to huLOX-1/HEK293 cells
Description: The huLOX-1/HEK293 cells were resuspended at 1×10⁶ cells/mL and seeded 50 μL per well into a 96-well V-bottom plate (5×10⁴ cells per well). LOX-1 or irrelevant control antibodies in assay medium (DMEM+10% FBS) were then added to the cells. Typical final antibody concentrations ranged from 0.006 μg/mL to 20 μg/mL. The cells were incubated at 37° C. for 1 hour, then washed twice with warm HBSS. Dil-oxLDL (human dil-labeled “High Oxidized” LDL, Kalen Biomedical, catalog number 770262-9; Dil is 1,1′-dioctadecyl-3,3,3′,3′-tetramethylindocarbocyanine perchlorate) in 50 ul assay medium was then added to a final concentration 30 to 100 μg/mL. The cells were then incubated at 37° C. for 2 hours, and then washed twice with FACS buffer (2% FBS in PBS). Cells were then analyzed for intensity of Di-I fluorescence by flow cytometry, as depicted in FIG. 2 and Table 3.

[4] = target: T1, Human LOX-1 full-length protein; experiment: flow cytometry, biotinylated antibody on primary human neutrophils, PE-streptavidin
Description: The resulting cell suspension was carefully transferred to a 50 mL conical tube containing 10 mL Ficoll-Paque, layering the cell suspension on top of the Ficoll-Paque, and the tube was then centrifuged at 1400 rpm (400×g) for 30 minutes at room temperature. The top layer was the discarded. To the resulting cell pellet, 10 mL 0.2% ice-cold sodium chloride was added, and the mixture was incubated for exactly 30 seconds to lyse red blood cells; 10 mL of ice-cold 1.6% sodium chloride was added to restore isotonicity. The cell suspension was then centrifuged at 1200 rpm ([…]) for 5 minutes. The supernantant was then discarded, and the red blood cell lysis procedure repeated once more. The resulting cell pellet was resuspended in FACS buffer (2 mM EDTA, 1% BSA, and 0.2% sodium azide in PBS) at a cell density of 2×10⁶ cells/mL.
The cell suspension containing freshly isolated human neutrophils was transferred (50 ul/well) to wells of a 96-well V-bottom plate (1×10⁵ cells/well) (Costar, catalog number 3894). Blocking buffer (4% normal rabbit serum diluted in FACS buffer (2 mM EDTA, 1% BSA, and 0.2% sodium azide in PBS) (50 ul/well) was added and the plate was incubated on ice for 30 minutes. Biotinylated LOX-1 antibody (10 μl) in FACS buffer was then added to the wells at final concentrations ranging from 1 ng/ml to 5 ug/mL, and the plate was incubated on ice for 30 minutes. The plate was then centrifuged at 1200 rpm (250-300×g) for 3 minutes and supernatant was discarded. The cells were then washed twice with 0.2 mL FACS buffer, and then 0.1 mL of PE-streptavidin (BD Pharmingen catalog number 554061) diluted at 1:250 in FACS buffer was added, and the plate incubated on ice for 30 minutes. The plate was then centrifuged again, supernatant discarded, and the cells washed twice with 0.2 mL FACS buffer. Cells were then resuspended in 0.1 mL of fixing buffer (FACS buffer with 2% paraformaldehyde) and analyzed using a FACS instrument. To determine an EC50 value for neutrophil binding by LOX-1 antibodies, the LOX-1 staining intensity determined by FACS was plotted vs. the concentration of the antibody as shown in FIG. 5 and Table 3.

T2 sequence (chain, as listed by the source): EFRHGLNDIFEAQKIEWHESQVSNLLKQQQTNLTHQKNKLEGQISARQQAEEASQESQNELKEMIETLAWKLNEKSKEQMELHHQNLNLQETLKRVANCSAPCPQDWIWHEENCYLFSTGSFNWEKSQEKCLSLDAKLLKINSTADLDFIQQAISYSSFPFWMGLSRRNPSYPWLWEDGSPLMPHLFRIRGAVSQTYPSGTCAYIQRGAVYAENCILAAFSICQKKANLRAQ

Reactive oxygen species (ROS) generation in huLOX-1/HEK293 cells (IC50, nM) [1]: 5.7 nM | Kd [2]: 0.015 nM | koff [2]: 2.5e-05 s⁻¹ | kon [2]: 1.7e+06 M⁻¹ s⁻¹ | IC50 [3]: 4 nM | EC50 [4]: 0.04 µg/mL
B1: E2E10 (murine parental) (antibody, IgG1, V domains shown)
VH: QVQLQQSGAELVRPGASVKLSCKALGYTFTDYEMHWVKQTPVHGLEWIGAIHPGSGGAAYIQKFKGKATLTADKSSSTAHMELSSLTSEDSAVYYCTRWLPMDYWGQGTSVTVSS
VL: DIQMTQSSSYLSVSLGGRVTITCKASDHINNWLAWYQQKPGNAPRLLISGATSLETGVPSRFSGSGSGKDYTLSITGLQTEDVATYYCQQYLITPYTFGGGTKLEIK
notes: Mouse hybridoma monoclonal antibody, IgG1 with a kappa light chain; Biotinylated in the SET and neutrophil assays; also called Clone 39.1E2E10; mouse parental

Source: patent US20170152313A1 (Novartis, published 2017)
